Reference: patent US20260258152

Target: activated Factor VIII (FVIIIa) (UniProt P00451)
Chain of UniProt P00451 (P00451 other isoform, or with tags, fused parts or gaps): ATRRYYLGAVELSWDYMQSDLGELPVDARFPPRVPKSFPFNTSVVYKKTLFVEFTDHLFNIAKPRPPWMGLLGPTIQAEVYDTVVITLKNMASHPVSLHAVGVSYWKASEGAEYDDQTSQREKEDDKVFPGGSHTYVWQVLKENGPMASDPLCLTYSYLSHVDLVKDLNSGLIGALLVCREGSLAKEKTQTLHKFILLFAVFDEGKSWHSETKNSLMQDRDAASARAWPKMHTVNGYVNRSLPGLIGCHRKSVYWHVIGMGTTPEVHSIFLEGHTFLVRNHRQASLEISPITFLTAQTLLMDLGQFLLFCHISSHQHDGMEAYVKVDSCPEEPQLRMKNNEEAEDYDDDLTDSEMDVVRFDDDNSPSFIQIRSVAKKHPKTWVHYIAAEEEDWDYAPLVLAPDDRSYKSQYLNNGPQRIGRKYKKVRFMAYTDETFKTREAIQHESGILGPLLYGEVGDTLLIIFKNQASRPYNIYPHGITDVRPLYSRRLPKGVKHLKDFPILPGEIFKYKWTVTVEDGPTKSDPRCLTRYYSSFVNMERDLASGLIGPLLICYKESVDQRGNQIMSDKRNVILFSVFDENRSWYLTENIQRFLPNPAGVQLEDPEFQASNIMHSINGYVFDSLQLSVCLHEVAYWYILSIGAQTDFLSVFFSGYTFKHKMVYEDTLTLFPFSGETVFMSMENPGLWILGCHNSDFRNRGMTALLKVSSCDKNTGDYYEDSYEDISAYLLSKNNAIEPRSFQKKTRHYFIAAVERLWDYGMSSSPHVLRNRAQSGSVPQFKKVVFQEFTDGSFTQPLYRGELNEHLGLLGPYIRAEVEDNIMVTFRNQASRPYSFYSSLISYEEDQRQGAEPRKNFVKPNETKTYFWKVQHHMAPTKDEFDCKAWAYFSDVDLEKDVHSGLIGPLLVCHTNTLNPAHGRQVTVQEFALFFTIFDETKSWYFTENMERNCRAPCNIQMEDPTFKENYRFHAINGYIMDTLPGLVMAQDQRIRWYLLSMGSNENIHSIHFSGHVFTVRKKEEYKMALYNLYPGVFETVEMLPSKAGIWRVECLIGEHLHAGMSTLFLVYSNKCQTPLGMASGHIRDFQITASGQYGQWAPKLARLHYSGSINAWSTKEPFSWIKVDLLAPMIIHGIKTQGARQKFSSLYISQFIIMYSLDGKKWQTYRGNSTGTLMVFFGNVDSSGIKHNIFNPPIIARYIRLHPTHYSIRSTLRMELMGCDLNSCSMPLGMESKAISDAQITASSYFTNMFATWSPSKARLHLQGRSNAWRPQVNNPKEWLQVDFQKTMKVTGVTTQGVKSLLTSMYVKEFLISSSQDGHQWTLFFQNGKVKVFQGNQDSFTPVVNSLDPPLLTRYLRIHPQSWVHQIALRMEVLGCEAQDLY

## Factor IX G93S (hemophilia B-causing FIX variant)
  FIX activity without the FVIIIa-mimetic: only 0.1% and 2% activity without the FVIIIa-mimetic
  FIX activity, one-stage aPTT clotting assay with and without 300 nM emicizumab: I397T, E387K, R338P, and G93S all substantially increase their activity with the addition of emicizumab
